Experimental data reported in US20240182548A1 (AstraZeneca / MedImmune, published 2024).

Biological target: SARS2 spike protein with C-terminal 19aa deletion, on S protein pseudotyped lentivirus (SARS-CoV-2, UniProt P0DTC2 13-1254)
Assay: cell-based or functional assay

Binder	Pseudovirus neutralization IC50
2096 (antibody, V domains shown) VH: QVQLVQSGAEVKKPGASVKVSCKASGYTFGSFDINWVRQATGQGLEWMGRMNSNSGNTAYAQKFQGRVTMTRDTSTNTAYMELSSLRSEDTAMYYCARMRSGWPTHGRPDDFWGRGTLVTVSS VL: QSVLTQAPSASGTPGQRVTISCSGSNSNIGSYTINWYQQLPGTAPKLLIYGNDQRTSGVPDRFSGSKFGTSASLAISGLQSEDENNYYCAVWDDSLNGLVFGGGTKLTVL	3.3 ng/mL
2094 (antibody, V domains shown) VH: EVQLVESGGGVVRPGGSLRLSCAASGFIFDDYDMTWVRQAPGKGLEWVSGINWNGGSTGYADSVKGRFTISRDNAKNSLYLQMNSLRAEDTALYHCAVIMSPIPRYSGYDWAGDAFDIWGQGTMVTVSS VL: SSELTQDPAVSVALGQTVRITCQGDSLRSYYASWYQQKPGQVPILVIYDKNNRPSGIPDRFSGSSSGNTASLTITGAQAEDEADYYCNSRDSSGNAVVFGGGTKLTVL	3 ng/mL
